Test results taken from article PMC10588934.

Target: dopamine receptor D1 fused to LgBiT (UniProt P21728)
Assay: split reporter

Chain of UniProt P21728 (P21728 whole entry, the tested form may be a part): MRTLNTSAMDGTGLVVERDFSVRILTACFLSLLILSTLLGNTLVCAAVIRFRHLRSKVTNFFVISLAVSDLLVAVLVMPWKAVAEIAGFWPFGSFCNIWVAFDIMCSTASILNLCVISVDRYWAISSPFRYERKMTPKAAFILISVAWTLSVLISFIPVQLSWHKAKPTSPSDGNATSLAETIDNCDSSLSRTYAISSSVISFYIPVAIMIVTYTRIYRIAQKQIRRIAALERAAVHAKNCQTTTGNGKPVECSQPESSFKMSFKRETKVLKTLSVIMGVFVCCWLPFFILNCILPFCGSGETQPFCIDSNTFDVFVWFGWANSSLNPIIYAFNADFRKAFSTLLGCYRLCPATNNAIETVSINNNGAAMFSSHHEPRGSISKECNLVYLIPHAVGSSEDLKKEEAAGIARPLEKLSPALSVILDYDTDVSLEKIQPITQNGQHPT

SmBiT-miniGs (domain or fragment) showed a DDR (luminescence with drug / without drug) of 1.6.
